Results from patent publication US20220289850 (published 2022).

Assays:
human integrin avb5 = target: T1, human integrin avb5 (human, UniProt P06756); test: FACS HEK cells
T1 chain 1: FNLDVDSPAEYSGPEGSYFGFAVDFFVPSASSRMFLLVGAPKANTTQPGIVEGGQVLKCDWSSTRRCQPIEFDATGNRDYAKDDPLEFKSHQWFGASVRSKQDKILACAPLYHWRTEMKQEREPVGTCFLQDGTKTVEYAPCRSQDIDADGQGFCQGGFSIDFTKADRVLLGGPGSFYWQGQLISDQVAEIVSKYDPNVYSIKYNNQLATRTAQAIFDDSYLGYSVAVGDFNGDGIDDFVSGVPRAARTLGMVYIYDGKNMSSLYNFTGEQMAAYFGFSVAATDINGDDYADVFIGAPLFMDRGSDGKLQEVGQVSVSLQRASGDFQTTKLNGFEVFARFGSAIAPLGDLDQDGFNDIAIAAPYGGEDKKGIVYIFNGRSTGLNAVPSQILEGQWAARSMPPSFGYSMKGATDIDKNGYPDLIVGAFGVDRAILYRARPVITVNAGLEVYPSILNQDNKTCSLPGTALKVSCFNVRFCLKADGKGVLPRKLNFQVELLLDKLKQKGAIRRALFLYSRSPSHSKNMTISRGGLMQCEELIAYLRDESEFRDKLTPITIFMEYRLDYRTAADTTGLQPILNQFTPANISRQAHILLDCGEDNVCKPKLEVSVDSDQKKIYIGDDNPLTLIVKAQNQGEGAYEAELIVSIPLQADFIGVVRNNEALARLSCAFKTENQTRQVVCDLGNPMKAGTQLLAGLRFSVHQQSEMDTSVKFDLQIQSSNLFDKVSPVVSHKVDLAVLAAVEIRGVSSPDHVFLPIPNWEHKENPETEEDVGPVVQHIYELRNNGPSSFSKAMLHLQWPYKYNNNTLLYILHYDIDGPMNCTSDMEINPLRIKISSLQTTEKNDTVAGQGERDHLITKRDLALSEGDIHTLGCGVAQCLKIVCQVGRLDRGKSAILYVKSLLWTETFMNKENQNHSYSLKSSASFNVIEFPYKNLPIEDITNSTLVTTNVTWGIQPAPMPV
T1 chain 2: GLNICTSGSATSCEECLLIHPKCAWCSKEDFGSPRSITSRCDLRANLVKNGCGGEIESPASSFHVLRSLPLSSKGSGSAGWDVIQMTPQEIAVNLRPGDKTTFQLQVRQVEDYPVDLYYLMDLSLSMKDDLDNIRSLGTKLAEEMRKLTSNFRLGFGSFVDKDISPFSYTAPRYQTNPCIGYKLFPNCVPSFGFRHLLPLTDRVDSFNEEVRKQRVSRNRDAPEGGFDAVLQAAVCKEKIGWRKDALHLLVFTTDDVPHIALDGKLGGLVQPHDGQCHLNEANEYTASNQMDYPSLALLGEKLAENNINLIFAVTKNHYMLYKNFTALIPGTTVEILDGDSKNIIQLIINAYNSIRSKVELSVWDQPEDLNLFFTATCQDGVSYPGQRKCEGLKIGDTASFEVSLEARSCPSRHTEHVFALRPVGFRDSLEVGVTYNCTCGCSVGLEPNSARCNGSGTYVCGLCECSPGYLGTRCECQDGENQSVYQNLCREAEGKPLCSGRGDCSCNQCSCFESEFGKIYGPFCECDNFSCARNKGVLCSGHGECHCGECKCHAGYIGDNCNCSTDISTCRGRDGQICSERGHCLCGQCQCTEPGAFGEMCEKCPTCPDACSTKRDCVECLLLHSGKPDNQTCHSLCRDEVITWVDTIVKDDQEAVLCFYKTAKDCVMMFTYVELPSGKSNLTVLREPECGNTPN

human integrin avb3 = target: T2, human integrin avb3 (human, UniProt P06756); test: SPR
T2 chain 1: T1 chain 1
T2 chain 2: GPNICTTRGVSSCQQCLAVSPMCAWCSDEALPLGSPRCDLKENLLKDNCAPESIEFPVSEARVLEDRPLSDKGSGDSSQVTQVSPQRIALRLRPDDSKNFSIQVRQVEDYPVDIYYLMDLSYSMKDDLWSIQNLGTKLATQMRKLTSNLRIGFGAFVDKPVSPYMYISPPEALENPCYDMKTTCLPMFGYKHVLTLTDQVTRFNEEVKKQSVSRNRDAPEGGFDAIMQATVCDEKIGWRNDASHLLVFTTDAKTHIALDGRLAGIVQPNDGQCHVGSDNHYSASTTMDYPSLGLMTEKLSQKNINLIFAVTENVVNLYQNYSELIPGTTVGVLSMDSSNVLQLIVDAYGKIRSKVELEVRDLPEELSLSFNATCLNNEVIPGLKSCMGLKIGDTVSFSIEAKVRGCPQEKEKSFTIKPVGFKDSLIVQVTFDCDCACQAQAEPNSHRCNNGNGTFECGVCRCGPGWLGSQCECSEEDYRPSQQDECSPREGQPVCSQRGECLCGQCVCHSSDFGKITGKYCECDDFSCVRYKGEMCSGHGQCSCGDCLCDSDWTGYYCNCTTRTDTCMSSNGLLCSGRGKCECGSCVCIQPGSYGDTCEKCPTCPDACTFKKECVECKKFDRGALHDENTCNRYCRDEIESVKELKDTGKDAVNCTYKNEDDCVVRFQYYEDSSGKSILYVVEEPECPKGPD

human integrin avb6 = target: T3, human integrin avb6 (human, UniProt P06756); test: SPR
T3 chain 1: T1 chain 1
T3 chain 2: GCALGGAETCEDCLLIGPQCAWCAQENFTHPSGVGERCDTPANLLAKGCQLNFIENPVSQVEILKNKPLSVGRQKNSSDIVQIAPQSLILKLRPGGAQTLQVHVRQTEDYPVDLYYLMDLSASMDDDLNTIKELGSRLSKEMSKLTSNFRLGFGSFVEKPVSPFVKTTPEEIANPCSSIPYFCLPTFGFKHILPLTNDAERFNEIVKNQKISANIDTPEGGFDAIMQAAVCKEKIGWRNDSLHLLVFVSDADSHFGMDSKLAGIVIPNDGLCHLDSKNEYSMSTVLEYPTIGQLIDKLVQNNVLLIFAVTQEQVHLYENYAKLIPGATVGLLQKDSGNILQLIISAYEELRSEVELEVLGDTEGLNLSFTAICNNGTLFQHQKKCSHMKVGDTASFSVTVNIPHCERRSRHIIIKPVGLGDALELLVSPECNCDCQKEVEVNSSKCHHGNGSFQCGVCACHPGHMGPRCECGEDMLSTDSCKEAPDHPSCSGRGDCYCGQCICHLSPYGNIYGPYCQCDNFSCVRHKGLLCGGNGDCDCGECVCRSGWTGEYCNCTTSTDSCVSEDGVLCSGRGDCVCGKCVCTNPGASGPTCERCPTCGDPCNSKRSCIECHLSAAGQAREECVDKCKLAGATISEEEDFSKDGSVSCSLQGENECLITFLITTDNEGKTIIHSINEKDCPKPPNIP

Measured: binding result

B1: ADWA11 2.4 IgG (antibody)
chain 1: EVQLVESGGGLVQPGGSLRLSCAASGFNIKDYYMNWVRQAPGKGLEWVGWIDPDQGNTIYEPKFQGRFTISADTSKNSAYLQMNSLRAEDTAVYYCARRLLMDYWGQGTLVTVSSASTKGPSVFPLAPSSKSTSGGTAALGCLVKDYFPEPVTVSWNSGALTSGVHTFPAVLQSSGLYSLSSVVTVPSSSLGTQTYICNVNHKPSNTKVDKKVEPKSCDKTHTCPPCPAPEAAGAPSVFLFPPKPKDTLMISRTPEVTCVVVDVSHEDPEVKFNWYVDGVEVHNAKTKPREEQYNSTYRVVSVLTVLHQDWLNGKEYKCKVSNKALPAPIEKTISKAKGQPREPQVYTLPPSREEMTKNQVSLTCLVKGFYPSDIAVEWESNGQPENNYKTTPPVLDSDGSFFLYSKLTVDKSRWQQGNVFSCSVMHEALHNHYTQKSLSLSPGK
chain 2: DIQMTQSPSSLSASVGDRVTITCRSTKSLSHFNGNTYLFWYQQKPGKAPKRLIYYMSSLASGVPSRFSGSGSGTDFTLTISSLQPEDFATYYCQQSLEYPFTFGGGTKVEIKRTVAAPSVFIFPPSDEQLKSGTASVVCLLNNFYPREAKVQWKVDNALQSGNSQESVTEQDSKDSTYSLSSTLTLSKADYEKHKVYACEVTHQGLSSPVTKSFNRGEC
no binding: all assays above
